Results: article PMC4721540, “Selective activators of protein phosphatase 5 target the auto-inhibitory mechanism” (Bioscience Reports, 2015)

B1: C-terminal Hsp90/DAF-21 peptide (AEEDASRMEEVD) (peptide)
peptide: AEEDASRMEEVD
notes: C-terminal peptide of Hsp90/DAF-21 of C. elegans; also called MEEVD peptide; MEEVD-containing peptide; source: bought: Biomatik
B2: PPH-5 (protein phosphatase homologue), PP5 from nematode origin (enzyme, C. elegans, UniProt Q9NES8 1-496, looked up)
chain: MAATITDDIVATVLESIEEKSYEDEKEKAGMIKDEANQFFKDQVYDVAADLYSVAIEIHPTAVLYGNRAQAYLKKELYGSALEDADNAIAIDPSYVKGFYRRATANMALGRFKKALTDYQAVVKVCPNDKDARAKFDECSKIVRRQKFEAAISTDHDKKTVAETLDINAMAIEDSYDGPRLEDKITKEFVLQLIKTFKNQQKLHKKYAFKMLLEFYNYVKSLPTMVEITVPTGKKFTICGDVHGQFYDLCNIFEINGYPSETNPYLFNGDFVDRGSFSVETIFTMIGFKLLYPNHFFMSRGNHESDVMNKMYGFEGEVKAKYTQQMCDMFTETFCWLPLCHLINEKIFVCHGGLFKEDGVTLEDIRKTDRNRQPPDEGIMCDLLWSDPQPINGRSPSKRGVGCQFGPDVTSKWCETNGIEYVVRSHEVKPEGYEMHHNGQCFTVFSAPNYCDQMNNKGAFITITGDNLTPRFTPFDAVPHPKLPPMAYANSLFGFN
notes: PPH-5, the protein phosphatase 5 homologue of C. elegans; also called nematode PPH-5; PPH-5 (C. elegans); source: cloning and purification as described before [32-35]

Experiments:
[1] = biological target: B2; assay: AUC; sedimentation velocity with fluorescence detection; 300 nM labelled YFP–Hsp90, 3 μM PPH-5; 40 mM HEPES/KOH, pH 7.5, 20 mM KCl, 1 mM DTT; 20°C, 142000 g, 12 h; P5SAs at maximal soluble concentrations or 60 μM C-terminal Hsp90/DAF-21 peptide added where indicated; conditions: both partners purified
YFP-CeHsp90/DAF-21 = biological target: T1, YFP-CeHsp90/DAF-21 (C. elegans, UniProt Q18688 1-702); assay: as above; conditions: both partners purified
T1 construct: Hsp90 of C. elegans (CeHsp90/DAF-21); Detected in the AUC by YFP fluorescence; also called YFP–Hsp90; YFP-tagged Hsp90; source: cloning and purification as described before [32-35]

Binder | binding result [1] | binding result (YFP-CeHsp90/DAF-21)
B1 | binds | –
B2 | – | binds
